First the molecules themselves.
T1: full-length NSM protein (putative movement protein of Tomato Spotted Wilt Virus) obtained from the IMPACT … (Tomato Spotted Wilt Virus, UniProt P36292 1-301)
T1 construct: mature; also called soluble NSM protein
T1 sequence (looked up): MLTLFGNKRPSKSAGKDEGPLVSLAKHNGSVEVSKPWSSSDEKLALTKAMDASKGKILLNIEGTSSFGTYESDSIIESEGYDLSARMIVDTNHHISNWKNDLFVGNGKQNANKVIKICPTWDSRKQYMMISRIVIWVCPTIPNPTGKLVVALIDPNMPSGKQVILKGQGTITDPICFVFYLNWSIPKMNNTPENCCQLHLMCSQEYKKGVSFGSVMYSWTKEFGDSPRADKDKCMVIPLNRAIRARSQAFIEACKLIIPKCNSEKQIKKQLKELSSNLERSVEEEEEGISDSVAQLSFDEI

B1: scFv N3 (scFv)
scFv: AVTLDESGGGLQTPGGGLSLVCKASGFSFSSYSMGWVRQAPGKGLEWVAGIGSSVIRTYYAPAVKGRATIPRDNGQSTVRLQLNDLRAEDTGTYYCAKESGSGKWFSIGQIDAWGHGTEVTVSSGSTSGSGKPGPGEGSTKGAPALTQPSSVSANPGGTVQITCSGGSGSYGWFQQKSPGSAPVTVIYSSDKRPSDIPSRFSGSKSGSTGTLTITGVQADDEAVYFCGSADSSHLGIFGAGTTLTVLGQP
notes: Soluble scFv, mini-scale (pHEN4II, c-myc tag) or large-scale (pTMZ1, IMAC purified) from E. coli; also called clone N3; not shown: C-terminal c-myc and his-6 tags from the expression vector
B2: scFv N10 (scFv)
scFv: B1 scFv with S170N
notes: Soluble scFv, mini-scale (pHEN4II, c-myc tag) or large-scale (pTMZ1, IMAC purified) from E. coli; also called clone N10; not shown: C-terminal c-myc and his-6 tags from the expression vector
B3: scFv N12 (scFv)
scFv: AVTLDESGGGLQTPGGGLSLVCKASGFDFSSYDMVWVRQAPGKGLEWVAGISSGSGPNYGAAVKGRATISRDNGQSTVRLQLNNLRAEDTATYYCAKNEGADWCGHYYCSVAYIDAWGHGTEVTVSSGSTSGSGKPGPGEGSTKGAPALTQPSSVSANPGETVKITCSGGSGDHYGWFQQKSPGSAPVTVIYNNDNRPSDIPSRFSGSKSGSTHTLTITGVQVEDEAVYFCGNRDSSAGIFGAGTTLTVLGQP
notes: Soluble scFv, mini-scale (pHEN4II, c-myc tag) or large-scale (pTMZ1, IMAC purified) from E. coli; also called clone N12; not shown: C-terminal c-myc and his-6 tags from the expression vector
B4: scFv N5 (scFv)
scFv: B3 scFv with G56V, N193K, D195E
notes: Soluble scFv, mini-scale (pHEN4II, c-myc tag) or large-scale (pTMZ1, IMAC purified) from E. coli; also called clone N5; not shown: C-terminal c-myc and his-6 tags from the expression vector

Positions count from the first letter of the chain named.

For the experiment, the target named is T1, full-length NSM protein (putative …). The experiment can be described thus: ELISA, full-length NSM coated, mini-scale expressed soluble scFv; vector control OD 0.02. A general note: An ELISA detects its analyte on a solid surface through an enzyme-linked reagent.
Description: NSM-specific clones were identified by ELISA using mini-scale expressed soluble scFvs and full-length NSM protein for coating.
Molecule B1 returned an OD410 nm of 0.2 OD.

The molecule B2 yielded an OD410 nm of 0.2 OD.

Molecule B3 registered an OD410 nm of 0.2 OD.

B4 had an OD410 nm of 0.2 OD.

The record behind these values is US20050037420A1 (published 2005).
